Measured values taken from patent publication US20200377587A1.
Numbering of substitutions follows the chain as printed.

B1: scFv 49-31 (scFv, part only; not given: linker and domain order, V domains shown, not shown: another chain or arm of the molecule; small tags and cut ends)
VH: EVQLVESGGGLVQPGGSLRLSCAASGFTFSSYYMHWVRQAPGKGLEWVSAISGGGSSTYYADSVKGRFTISRDNSKNTLYLQMNSLRAEDTAVYYCARDLRIFEGRDAGFDVWGQGTLVTVS
VL: DIQMTQSPSSLSASVGDRVTITCQASQDISNYLNWYQQKPGKAPKLLIYDASNLETGVPSRFSGSGSGTDFTFTISSLQPEDIATYYCQQDDDVPWTFGQGTKVEIK
B2: scFv 49-1 (scFv, part only; not given: linker and domain order, V domains shown, not shown: another chain or arm of the molecule; small tags and cut ends)
VH: EVQLVESGGGLVQPGGSLRLSCAASGFTFSSYWMHWVRQAPGKGLEWVSAISWSGGSTSYADSVKGRFTISRDNSKNTLYLQMNSLRAEDTAVYYCARDLTWWVQAFDVWGQGTLVTVSS
VL: B1 VL with D91V, V94S, W96L

Tests used:
[1] = biological target: IL-8 (UniProt P10145); experiment: cell-based or functional assay
Sequence of IL-8 (P10145 28-99 limits assumed): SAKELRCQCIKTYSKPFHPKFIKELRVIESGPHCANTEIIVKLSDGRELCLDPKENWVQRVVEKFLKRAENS

[2] = biological target: IL-8 (77-mer) (UniProt P10145); experiment: binding kinetics, FIG. 1B
Sequence of IL-8 (77-mer) (P10145 23-99 limits assumed): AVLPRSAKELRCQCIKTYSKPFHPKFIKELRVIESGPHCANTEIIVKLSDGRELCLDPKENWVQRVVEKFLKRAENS

[3] = biological target: IL-8 (72-mer) (UniProt P10145); experiment: binding kinetics, FIG. 1B
Sequence of IL-8 (72-mer) (P10145 28-99 limits assumed): as the sequence (P10145 28-99 limits assumed) above

[4] = biological target: IL-8 (UniProt P10145); experiment: SPR, scFv, preliminary KD, lowest and highest value
[5] = biological target: IL-8 (UniProt P10145); experiment: SPR, immobilized IL-8, scFv, 25 C

| Binder | reduction of transmigration of neutrophils (IL-8 mediated neutrophil chemotaxis, transwell, 1 nM IL-8, 1.5 and 3 hours) [1] | Kd [2] | Kd [3] | Kd [4] | Kd [5] |
| --- | --- | --- | --- | --- | --- |
| B1 | 30 to 70% | 0.12 nM | 0.147 nM | 0.009 to 0.048 nM | 0.009 to 0.048 nM |
| B2 | – | – | – | – | 2.66 nM |
